In publication PMC7404307 one finds Kd data, which are given here for 2 sequences.

For the data set, the target named is ternary troponin complex I-T-C (cTnI-cTnT-cTnC) (UniProt P19429+P45379+P63316). The data set is described as follows: SPR imaging. Particulars: L-DNA (all L-2'-deoxyribose); SPRi: PBS (10 mM phosphate, 137 mM NaCl, 2.7 mM KCl, pH 7.4), 25 C; filter binding: PBS, RT, 1 h; AlphaLisa: selection buffer (PBS, 1 mg/mL BSA, 0.01 ug/mL …). For orientation: Bead proximity is the source of the signal in Alpha formats.

pKd: −log10 of the molar value.

The pKd is −log10 of the Kd, conventionally taken in molar units. Higher therefore signals a small Kd. “CAGTGAGTGATGGTGAGGGCTTAGTTCGCCGCTCATGCCGAATCTCCTGTATAAATACCCACACTGTCCATACACG [A6 spiegelmer]” showed a pKd of 9.27.

As for “CAGTGAGTGATGGTGAGGGTGAATCGGTGTCGACTATTAAATTAAGTTGTGGTTGTTCCCACACTGTCCATACACG [C6 spiegelmer]”, the negative logarithm of the Kd (pKd) was 9.52.
